Measured values as given in PMC3670212 (Cell, 2013).

Legend:
[1] = biological target: the molecule itself; experiment: negative-stain electron microscopy
[2] = biological target: E. coli DnaB replicative helicase (E. coli, UniProt P0ACB0 1-471); experiment: negative-stain electron microscopy
E. coli DnaB replicative helicase, sequence (P0ACB0 whole entry): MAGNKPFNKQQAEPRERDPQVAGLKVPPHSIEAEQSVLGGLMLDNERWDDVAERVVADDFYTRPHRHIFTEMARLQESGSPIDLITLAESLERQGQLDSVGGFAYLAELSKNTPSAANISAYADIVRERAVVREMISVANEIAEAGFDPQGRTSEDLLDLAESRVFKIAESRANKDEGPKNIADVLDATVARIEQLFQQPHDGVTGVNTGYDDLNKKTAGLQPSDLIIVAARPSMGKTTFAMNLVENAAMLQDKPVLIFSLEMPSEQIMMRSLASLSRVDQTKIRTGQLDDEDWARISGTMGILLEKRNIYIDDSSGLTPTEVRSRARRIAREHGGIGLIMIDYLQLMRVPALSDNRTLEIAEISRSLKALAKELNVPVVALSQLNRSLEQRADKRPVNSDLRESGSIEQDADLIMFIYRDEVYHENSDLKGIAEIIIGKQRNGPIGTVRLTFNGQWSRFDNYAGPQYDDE

- stoichiometry N [2]: 6 DnaC subunits per DnaB hexamer
B1: E. coli DnaC helicase loader (natural protein, UniProt P0AEF0 1-245, looked up)
chain: MKNVGDLMQRLQKMMPAHIKPAFKTGEELLAWQKEQGAIRSAALERENRAMKMQRTFNRSGIRPLHQNCSFENYRVECEGQMNALSKARQYVEEFDGNIASFIFSGKPGTGKNHLAAAICNELLLRGKSVLIITVADIMSAMKDTFRNSGTSEEQLLNDLSNVDLLVIDEIGVQTESKYEKVIINQIVDRRSSSKRPTGMLTNSNMEEMTKLLGERVMDRMRLGNSLWVIFNWDSYRSRVTGKEY
- stoichiometry N [1]: 6
